Measured values as given in patent US20250109206A1 (CENTESSA PHARMACEUTICALS UK, published 2025).

T1: Cyno PD-L1 (cynomolgus, UniProt Q9NZQ7 19-127 (human entry), limits assumed)
T1 construct: also called cynomolgus PD-L1
T1 chain: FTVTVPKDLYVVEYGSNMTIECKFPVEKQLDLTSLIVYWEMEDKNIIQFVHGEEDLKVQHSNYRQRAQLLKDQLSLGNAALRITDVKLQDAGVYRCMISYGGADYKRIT


Tests used:
[1] = target: T1, Cyno PD-L1; assay: SPR, Fab
[2] = target: T2, Human PD-L1 (human, UniProt Q9NZQ7 19-127, limits assumed); assay: SPR, Fab
T2 construct: also called huPD-L1; hPD-L1

[3] = target: human CD3 on Jurkat cells (human, UniProt P07766 23-207); assay: cell-based or functional assay
Sequence of human CD3 on Jurkat cells (P07766 23-207): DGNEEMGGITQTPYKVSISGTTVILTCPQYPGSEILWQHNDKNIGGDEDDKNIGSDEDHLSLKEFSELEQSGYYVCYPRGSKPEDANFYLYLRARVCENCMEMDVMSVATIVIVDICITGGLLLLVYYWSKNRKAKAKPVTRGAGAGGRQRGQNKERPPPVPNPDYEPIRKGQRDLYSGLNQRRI

Row | Binder | Kd [1] | Kd [2] | binding result [1] | EC50, CD3 activation signal in Jurkat reporter cell line (luciferase) [3]
1 | Anti-PD-L1 Fab mut-03 (S104W) (Fab, V domains shown, Fab format; VH variant with WT VL; constant domains of the Fab not specified; also called mut-3) VH: QVQLVQSGAEVKKPGSSVKVSCKTSGDTFSTYAISWVRQAPGQGLEWMGGIIPIFGKAHYAQKFQGRVTITADESTSTAYMELSSLRSEDTAVYFCARKFHFVWGSPFGMDVWGQGTTVTVSS VL: not shown | 13.6 nM | 1.1 nM | – | –
2 | Anti-PD-L1 Fab mut-34 (K57M) (Fab, V domains shown, Fab format; VH variant with WT VL; constant domains of the Fab not specified) VH: QVQLVQSGAEVKKPGSSVKVSCKTSGDTFSTYAISWVRQAPGQGLEWMGGIIPIFGMAHYAQKFQGRVTITADESTSTAYMELSSLRSEDTAVYFCARKFHFVSGSPFGMDVWGQGTTVTVSS VL: not shown | 5.82 nM | 3.58 nM | – | –
3 | Anti-PD-L1 Fab mut-22 (A33H) (Fab, V domains shown, Fab format; VH variant with WT VL; constant domains of the Fab not specified) VH: QVQLVQSGAEVKKPGSSVKVSCKTSGDTFSTYHISWVRQAPGQGLEWMGGIIPIFGKAHYAQKFQGRVTITADESTSTAYMELSSLRSEDTAVYFCARKFHFVSGSPFGMDVWGQGTTVTVSS VL: not shown | 20 nM | 1.84 nM | – | –
4 | Anti-PD-L1 Fab mut-42 (I54Q) (Fab, V domains shown, Fab format; VH variant with WT VL; constant domains of the Fab not specified) VH: QVQLVQSGAEVKKPGSSVKVSCKTSGDTFSTYAISWVRQAPGQGLEWMGGIIPQFGKAHYAQKFQGRVTITADESTSTAYMELSSLRSEDTAVYFCARKFHFVSGSPFGMDVWGQGTTVTVSS VL: not shown | 5.98 nM | 3.99 nM | – | –
5 | Anti-PD-L1 Fab mut-50 (Q62E) (Fab, V domains shown, Fab format; VH variant with WT VL; constant domains of the Fab not specified) VH: QVQLVQSGAEVKKPGSSVKVSCKTSGDTFSTYAISWVRQAPGQGLEWMGGIIPIFGKAHYAEKFQGRVTITADESTSTAYMELSSLRSEDTAVYFCARKFHFVSGSPFGMDVWGQGTTVTVSS VL: not shown | 4.82 nM | 0.124 nM | – | –
6 | Anti-PD-L1 Fab mut-49 (G56N) (Fab, V domains shown, Fab format; VH variant with WT VL; constant domains of the Fab not specified) VH: QVQLVQSGAEVKKPGSSVKVSCKTSGDTFSTYAISWVRQAPGQGLEWMGGIIPIFNKAHYAQKFQGRVTITADESTSTAYMELSSLRSEDTAVYFCARKFHFVSGSPFGMDVWGQGTTVTVSS VL: not shown | 3.53 nM | 0.224 nM | – | –
7 | Anti-PD-L1 Fab mut-39 (K57F) (Fab, V domains shown, Fab format; VH variant with WT VL; constant domains of the Fab not specified) VH: QVQLVQSGAEVKKPGSSVKVSCKTSGDTFSTYAISWVRQAPGQGLEWMGGIIPIFGFAHYAQKFQGRVTITADESTSTAYMELSSLRSEDTAVYFCARKFHFVSGSPFGMDVWGQGTTVTVSS VL: not shown | 3.96 nM | 1.54 nM | – | –
8 | Anti-PD-L1 Fab mut-23 (G56H) (Fab, V domains shown, Fab format; VH variant with WT VL; constant domains of the Fab not specified) VH: QVQLVQSGAEVKKPGSSVKVSCKTSGDTFSTYAISWVRQAPGQGLEWMGGIIPIFHKAHYAQKFQGRVTITADESTSTAYMELSSLRSEDTAVYFCARKFHFVSGSPFGMDVWGQGTTVTVSS VL: not shown | 3.02 nM | 0.195 nM | – | –
9 | Anti-PD-L1 Fab mut-47 (T31R) (Fab, V domains shown, Fab format; VH variant with WT VL; constant domains of the Fab not specified) VH: QVQLVQSGAEVKKPGSSVKVSCKTSGDTFSRYAISWVRQAPGQGLEWMGGIIPIFGKAHYAQKFQGRVTITADESTSTAYMELSSLRSEDTAVYFCARKFHFVSGSPFGMDVWGQGTTVTVSS VL: not shown | 9.32 nM | 0.594 nM | – | –
10 | Anti-PD-L1 Fab mut-54 (G56Q, T31Q) (Fab, V domains shown, Fab format; VH variant with WT VL; constant domains of the Fab not specified) VH: QVQLVQSGAEVKKPGSSVKVSCKTSGDTFSQYAISWVRQAPGQGLEWMGGIIPIFQKAHYAQKFQGRVTITADESTSTAYMELSSLRSEDTAVYFCARKFHFVSGSPFGMDVWGQGTTVTVSS VL: not shown | 0.631 nM | 0.0722 nM | – | –
11 | Anti-PD-L1 Fab mut-46 (I54R) (Fab, V domains shown, Fab format; VH variant with WT VL; constant domains of the Fab not specified) VH: QVQLVQSGAEVKKPGSSVKVSCKTSGDTFSTYAISWVRQAPGQGLEWMGGIIPRFGKAHYAQKFQGRVTITADESTSTAYMELSSLRSEDTAVYFCARKFHFVSGSPFGMDVWGQGTTVTVSS VL: not shown | 12.7 nM | 1.04 nM | – | –
12 | Anti-PD-L1 Fab mut-06 (S104R) (Fab, V domains shown, Fab format; VH variant with WT VL; constant domains of the Fab not specified; also called mut-6; Mut-6) VH: QVQLVQSGAEVKKPGSSVKVSCKTSGDTFSTYAISWVRQAPGQGLEWMGGIIPIFGKAHYAQKFQGRVTITADESTSTAYMELSSLRSEDTAVYFCARKFHFVRGSPFGMDVWGQGTTVTVSS VL: not shown | 2.86 nM | 0.0857 nM | – | –
13 | Anti-PD-L1 Fab mut-07 (I54W) (Fab, V domains shown, Fab format; VH variant with WT VL; constant domains of the Fab not specified; also called mut-7) VH: QVQLVQSGAEVKKPGSSVKVSCKTSGDTFSTYAISWVRQAPGQGLEWMGGIIPWFGKAHYAQKFQGRVTITADESTSTAYMELSSLRSEDTAVYFCARKFHFVSGSPFGMDVWGQGTTVTVSS VL: not shown | 143 nM | 4.25 nM | – | –
14 | Anti-PD-L1 Fab mut-27 (K57D) (Fab, V domains shown, Fab format; VH variant with WT VL; constant domains of the Fab not specified) VH: QVQLVQSGAEVKKPGSSVKVSCKTSGDTFSTYAISWVRQAPGQGLEWMGGIIPIFGDAHYAQKFQGRVTITADESTSTAYMELSSLRSEDTAVYFCARKFHFVSGSPFGMDVWGQGTTVTVSS VL: not shown | – | 5.58 nM | no binding | –
15 | Anti-PD-L1 Fab mut-28 (S104N) (Fab, V domains shown, Fab format; VH variant with WT VL; constant domains of the Fab not specified) VH: QVQLVQSGAEVKKPGSSVKVSCKTSGDTFSTYAISWVRQAPGQGLEWMGGIIPIFGKAHYAQKFQGRVTITADESTSTAYMELSSLRSEDTAVYFCARKFHFVNGSPFGMDVWGQGTTVTVSS VL: not shown | 5.51 nM | 0.501 nM | – | –
16 | Anti-PD-L1 Fab mut-20 (I54Y) (Fab, V domains shown, Fab format; VH variant with WT VL; constant domains of the Fab not specified) VH: QVQLVQSGAEVKKPGSSVKVSCKTSGDTFSTYAISWVRQAPGQGLEWMGGIIPYFGKAHYAQKFQGRVTITADESTSTAYMELSSLRSEDTAVYFCARKFHFVSGSPFGMDVWGQGTTVTVSS VL: not shown | 15.9 nM | 0.875 nM | – | –
17 | Anti-PD-L1 Fab mut-15 (K57W) (Fab, V domains shown, Fab format; VH variant with WT VL; constant domains of the Fab not specified) VH: QVQLVQSGAEVKKPGSSVKVSCKTSGDTFSTYAISWVRQAPGQGLEWMGGIIPIFGWAHYAQKFQGRVTITADESTSTAYMELSSLRSEDTAVYFCARKFHFVSGSPFGMDVWGQGTTVTVSS VL: not shown | 10.5 nM | 1.69 nM | – | –
18 | Anti-PD-L1 Fab mut-43 (G56Q) (Fab, V domains shown, Fab format; VH variant with WT VL; constant domains of the Fab not specified) VH: QVQLVQSGAEVKKPGSSVKVSCKTSGDTFSTYAISWVRQAPGQGLEWMGGIIPIFQKAHYAQKFQGRVTITADESTSTAYMELSSLRSEDTAVYFCARKFHFVSGSPFGMDVWGQGTTVTVSS VL: not shown | 2.73 nM | 0.204 nM | – | –
19 | Anti-PD-L1 Fab mut-44 (I52F) (Fab, V domains shown, Fab format; VH variant with WT VL; constant domains of the Fab not specified) VH: QVQLVQSGAEVKKPGSSVKVSCKTSGDTFSTYAISWVRQAPGQGLEWMGGIFPIFGKAHYAQKFQGRVTITADESTSTAYMELSSLRSEDTAVYFCARKFHFVSGSPFGMDVWGQGTTVTVSS VL: not shown | 6.85 nM | 0.542 nM | – | –
20 | Anti-PD-L1 Fab mut-04 (I54K) (Fab, V domains shown, Fab format; VH variant with WT VL; constant domains of the Fab not specified; also called mut-4) VH: QVQLVQSGAEVKKPGSSVKVSCKTSGDTFSTYAISWVRQAPGQGLEWMGGIIPKFGKAHYAQKFQGRVTITADESTSTAYMELSSLRSEDTAVYFCARKFHFVSGSPFGMDVWGQGTTVTVSS VL: not shown | 10.8 nM | 0.857 nM | – | –
21 | Anti-PD-L1 Fab mut-51 (S104R, G56Q, T31Q) (Fab, V domains shown, Fab format; VH variant with WT VL; constant domains of the Fab not specified) VH: QVQLVQSGAEVKKPGSSVKVSCKTSGDTFSQYAISWVRQAPGQGLEWMGGIIPIFQKAHYAQKFQGRVTITADESTSTAYMELSSLRSEDTAVYFCARKFHFVRGSPFGMDVWGQGTTVTVSS VL: not shown | 0.18 nM | 0.0157 nM | – | –
22 | Anti-PD-L1 Fab mut-14 (S104D) (Fab, V domains shown, Fab format; VH variant with WT VL; constant domains of the Fab not specified) VH: QVQLVQSGAEVKKPGSSVKVSCKTSGDTFSTYAISWVRQAPGQGLEWMGGIIPIFGKAHYAQKFQGRVTITADESTSTAYMELSSLRSEDTAVYFCARKFHFVDGSPFGMDVWGQGTTVTVSS VL: not shown | 29.3 nM | 3.36 nM | – | –
23 | Anti-PD-L1 Fab mut-53 (S104R, T31Q) (Fab, V domains shown, Fab format; VH variant with WT VL; constant domains of the Fab not specified) VH: QVQLVQSGAEVKKPGSSVKVSCKTSGDTFSQYAISWVRQAPGQGLEWMGGIIPIFGKAHYAQKFQGRVTITADESTSTAYMELSSLRSEDTAVYFCARKFHFVRGSPFGMDVWGQGTTVTVSS VL: not shown | 0.288 nM | 0.0217 nM | – | –
24 | Anti-PD-L1 Fab mut-08 (K57R) (Fab, V domains shown, Fab format; VH variant with WT VL; constant domains of the Fab not specified; also called mut-8) VH: QVQLVQSGAEVKKPGSSVKVSCKTSGDTFSTYAISWVRQAPGQGLEWMGGIIPIFGRAHYAQKFQGRVTITADESTSTAYMELSSLRSEDTAVYFCARKFHFVSGSPFGMDVWGQGTTVTVSS VL: not shown | 6.48 nM | 0.489 nM | – | –
25 | Anti-PD-L1 Fab mut-48 (T31Q) (Fab, V domains shown, Fab format; VH variant with WT VL; constant domains of the Fab not specified) VH: QVQLVQSGAEVKKPGSSVKVSCKTSGDTFSQYAISWVRQAPGQGLEWMGGIIPIFGKAHYAQKFQGRVTITADESTSTAYMELSSLRSEDTAVYFCARKFHFVSGSPFGMDVWGQGTTVTVSS VL: not shown | 3.24 nM | 0.249 nM | – | –
26 | Anti-PD-L1 Fab mut-52 (S104R, G56Q) (Fab, V domains shown, Fab format; VH variant with WT VL; constant domains of the Fab not specified) VH: QVQLVQSGAEVKKPGSSVKVSCKTSGDTFSTYAISWVRQAPGQGLEWMGGIIPIFQKAHYAQKFQGRVTITADESTSTAYMELSSLRSEDTAVYFCARKFHFVRGSPFGMDVWGQGTTVTVSS VL: not shown | 0.298 nM | 0.0214 nM | – | –
27 | CD3-IgG-001 (antibody, V domains shown) VH: EVQLVESGGGLVQPGGSLRLSCAASGFTFNTYAMNWVRQAPGKGLEWVARIRSKYNNYATYYADSVKDRFTISRDDSQSILYLQMNSLKTEDTAVYYCVRHGNFGNSYVSWFAYWGQGTLVTVSS VL: QAVVTQEPSLTVSPGGTVTLTCRSSTGAVTTSNYANWVQQKPDHLPRALIGGTNKRAPGTPARFSGSLLGDKAALTLSGVQPEDEAEYYCALWYSNLWVFGGGTKLTVL | – | – | – | 0.2 nM
